According to patent US20130330328A1 (AstraZeneca / MedImmune, published 2013):
Each block holds one molecule with its values, some of them ahead of it.

Assays:
human CD20 (human) [1] = biological target: human CD20 (human) (UniProt P11836); experiment: flow cytometry, direct binding to Karpas-422 (NHL) cells, labeled goat anti-human secondary
human CD20 (human) [2] = biological target: human CD20 (human) (UniProt P11836); experiment: flow cytometry, direct binding to Nalm-6 (ALL) cells, labeled goat anti-human secondary
human CD20 (human) [3] = biological target: human CD20 (human) (UniProt P11836); experiment: flow cytometry, direct binding to Farage (DLCL) cells, labeled goat anti-human secondary
human CD20 (human) [4] = biological target: human CD20 (human) (UniProt P11836); experiment: flow cytometry, direct binding to Raji (Burkitt) cells, labeled goat anti-human secondary
human CD20 (human) [5] = biological target: human CD20 (human) (UniProt P11836); experiment: flow cytometry, direct binding to Toledo (DLCL) cells, labeled goat anti-human secondary
human CD20 (human) [6] = biological target: human CD20 (human) (UniProt P11836); experiment: cell-based or functional assay
human CD20 (human) [7] = biological target: human CD20 (human) (UniProt P11836); experiment: flow cytometry, direct binding to Namalwa (Burkitt) cells, labeled goat anti-human secondary
human CD20 (human) [8] = biological target: human CD20 (human) (UniProt P11836); experiment: flow cytometry, direct binding to JVM-13 (CLL) cells, labeled goat anti-human secondary
human CD20 (human) [9] = biological target: human CD20 (human) (UniProt P11836); experiment: flow cytometry, direct binding to Granta-519 (NHL/MCL) cells, labeled goat anti-human secondary
human CD19 = biological target: T1, human CD19 (human, UniProt P15391 20-556); experiment: cell-based or functional assay
T1 sequence (looked up): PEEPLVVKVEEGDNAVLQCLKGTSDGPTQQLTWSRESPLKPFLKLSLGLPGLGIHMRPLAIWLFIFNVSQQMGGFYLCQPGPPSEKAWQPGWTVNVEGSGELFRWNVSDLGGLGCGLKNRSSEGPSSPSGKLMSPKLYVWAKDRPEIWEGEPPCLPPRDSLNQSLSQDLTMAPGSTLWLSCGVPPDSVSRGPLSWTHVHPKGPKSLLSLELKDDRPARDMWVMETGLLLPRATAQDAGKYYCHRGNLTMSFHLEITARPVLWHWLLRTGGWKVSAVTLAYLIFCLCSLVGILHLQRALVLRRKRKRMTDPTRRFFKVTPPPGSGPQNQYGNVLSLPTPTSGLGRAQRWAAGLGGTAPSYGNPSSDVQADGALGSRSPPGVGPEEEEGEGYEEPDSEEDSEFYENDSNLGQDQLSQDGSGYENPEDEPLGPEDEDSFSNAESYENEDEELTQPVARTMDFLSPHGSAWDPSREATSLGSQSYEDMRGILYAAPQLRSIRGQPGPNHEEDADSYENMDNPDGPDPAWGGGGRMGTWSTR

Chain of human CD20 (human) (P11836 whole entry): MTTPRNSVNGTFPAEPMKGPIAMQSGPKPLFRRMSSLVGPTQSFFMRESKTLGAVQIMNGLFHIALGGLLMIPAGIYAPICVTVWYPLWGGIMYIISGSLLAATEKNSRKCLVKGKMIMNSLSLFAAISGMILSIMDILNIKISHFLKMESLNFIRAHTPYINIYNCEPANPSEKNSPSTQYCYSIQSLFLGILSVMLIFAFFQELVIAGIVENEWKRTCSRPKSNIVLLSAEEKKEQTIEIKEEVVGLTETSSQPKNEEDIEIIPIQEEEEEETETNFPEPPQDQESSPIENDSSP

- MFI at 1 µg/ml (human CD20 (human) [1]): 45 MFI
- MFI at 1 µg/ml (human CD20 (human) [2]): 26 MFI
- MFI at 1 µg/ml (human CD20 (human) [3]): 581 MFI
- MFI at 1 µg/ml (human CD20 (human) [4]): 823 MFI
- MFI at 1 µg/ml (human CD20 (human) [5]): 312 MFI
- ADCC EC50 [ng/ml], DB (DLCL) cells (human CD20 (human) [6]): 0.24 ng/mL
- ADCC EC50 [ng/ml], Daudi (Burkitt) cells (human CD20 (human) [6]): 0.041 ng/mL
- ADCC EC50 [ng/ml], Farage (DLCL) cells (human CD20 (human) [6]): 0.0113 ng/mL
- ADCC EC50 [ng/ml], JVM-2 (CLL) cells (human CD20 (human) [6]): 0.0586 ng/mL
- ADCC EC50 [ng/ml], JVM-13 (CLL) cells (human CD20 (human) [6]): 0.0317 ng/mL
- ADCC EC50 [ng/ml], Karpas-1106P cells (human CD20 (human) [6]): 0.0137 ng/mL
- ADCC EC50 [ng/ml], MeC2 (CLL) cells (human CD20 (human) [6]): 0.007 ng/mL
- ADCC EC50 [ng/ml], RL (NHL) cells (human CD20 (human) [6]): 0.0296 ng/mL
- ADCC EC50 [ng/ml], Raji (Burkitt) cells (human CD20 (human) [6]): 0.008 ng/mL
- ADCC EC50 [ng/ml], Toledo (DLCL) cells (human CD20 (human) [6]): 0.0319 ng/mL
- EC50, FACS-based ADCC assay with patient CLL samples (human CD20 (human) [6]): 0.639 to 0.682 nM
- MFI at 1 µg/ml (human CD20 (human) [7]): 298 MFI
- MFI at 1 µg/ml (human CD20 (human) [8]): 60 MFI
- MFI at 1 µg/ml (human CD20 (human) [9]): 403 MFI
Molecule: rituximab (antibody)
- % max. cell kill at 10 ug/ml, DB (DLCL) cells (human CD20 (human) [6]): 46%
- % max. cell kill at 10 ug/ml, Daudi (Burkitt) cells (human CD20 (human) [6]): 51%
- % max. cell kill at 10 ug/ml, Farage (DLCL) cells (human CD20 (human) [6]): 54%
- % max. cell kill at 10 ug/ml, JVM-2 (CLL) cells (human CD20 (human) [6]): 49%
- % max. cell kill at 10 ug/ml, JVM-13 (CLL) cells (human CD20 (human) [6]): 50%
- % max. cell kill at 10 ug/ml, Karpas-422 (NHL) cells (human CD20 (human) [6]): 5%
- % max. cell kill at 10 ug/ml, MeC2 (CLL) cells (human CD20 (human) [6]): 42%
- % max. cell kill at 10 ug/ml, Nalm-6 (ALL) cells (human CD20 (human) [6]): 14%
- % max. cell kill at 10 ug/ml, Namalwa (Burkitt) cells (human CD20 (human) [6]): 7%
- % max. cell kill at 10 ug/ml, Raji (Burkitt) cells (human CD20 (human) [6]): 40%
- % max. cell kill at 10 ug/ml, Toledo (DLCL) cells (human CD20 (human) [6]): 55%

- ADCC EC50 [ng/ml], Daudi (Burkitt) cells (human CD19): 0.0031 ng/mL
- ADCC EC50 [ng/ml], Farage (DLCL) cells (human CD19): 0.0141 ng/mL
- ADCC EC50 [ng/ml], JVM-2 (CLL) cells (human CD19): 0.188 ng/mL
- ADCC EC50 [ng/ml], JVM-13 (CLL) cells (human CD19): 0.0368 ng/mL
- ADCC EC50 [ng/ml], Karpas-422 (NHL) cells (human CD19): 0.0181 ng/mL
- ADCC EC50 [ng/ml], Karpas-1106P cells (human CD19): 0.009 ng/mL
- ADCC EC50 [ng/ml], MeC2 (CLL) cells (human CD19): 0.0039 ng/mL
- ADCC EC50 [ng/ml], Nalm-6 (ALL) cells (human CD19): 0.0199 ng/mL
- ADCC EC50 [ng/ml], Namalwa (Burkitt) cells (human CD19): 0.012 ng/mL
- ADCC EC50 [ng/ml], Oci-LY19 (DLCL) cells (human CD19): 0.0163 ng/mL
- ADCC EC50 [ng/ml], RL (NHL) cells (human CD19): 0.0073 ng/mL
- ADCC EC50 [ng/ml], Raji (Burkitt) cells (human CD19): 0.003 ng/mL
- ADCC EC50 [ng/ml], Toledo (DLCL) cells (human CD19): 0.0075 ng/mL
B1: afucosylated anti-CD19 mAb 16C4 (16C4-afuc) (antibody, IgG1, V domains shown)
VH: EVQLVESGGGLVQPGGSLRLSCAASGFTFSSSWMNWVRQAPGKGLEWVGRIYPGDGDTNYNVKFKGRFTISRDDSKNSLYLQMNSLKTEDTAVYYCARSGFITTVRDFDYWGQGTLVTVSS
VL: EIVLTQSPDFQSVTPKEKVTITCRASESVDTFGISFINWFQQKPDQSPKLLIHEASNQGSGVPSRFSGSGSGTDFTLTINSLEAEDAATYYCQQTKEVPFTFGGGTKVEIK
